The target of test [1] is FGFR1-RE kinase domain (R577E mutant, aa 458-765) (human) (UniProt P11362).
The target in test [2] is wt-FGFR1 kinase domain (aa 458-765) (human) (UniProt P11362).

The source of these data is patent publication US20120328599A1.

“FGFR1-RE kinase domain (R577E mutant, aa 458-765) (from UniProt P11362) (enzyme)”: the in vitro trans phosphorylation of purified kinase domains with ATP and Mg2+, native gel in test [1] is under 30 min. “wt-FGFR1 kinase domain (aa 458-765) (from UniProt P11362) (enzyme)” yielded an in vitro trans phosphorylation of purified kinase domains with ATP and Mg2+, native gel in test [2] of under 10 min.
